Source: article PMC8213733, “Subtype-specific collaborative transcription factor networks are promoted by OCT4 in the progression of prostate cancer” (Nature Communications, 2021)

Target: T1, Flag-AR (human (cDNA of PC cells, said of the …, UniProt P10275 1-920))
T1 construct: androgen receptor, full length in Flag-tagged pcDNA3.0; also called androgen receptor; source: 293T, transfected, cells treated with 10 nM DHT or vehicle, purified (Flag M2 agarose beads, glycine elution)
T1 sequence (looked up): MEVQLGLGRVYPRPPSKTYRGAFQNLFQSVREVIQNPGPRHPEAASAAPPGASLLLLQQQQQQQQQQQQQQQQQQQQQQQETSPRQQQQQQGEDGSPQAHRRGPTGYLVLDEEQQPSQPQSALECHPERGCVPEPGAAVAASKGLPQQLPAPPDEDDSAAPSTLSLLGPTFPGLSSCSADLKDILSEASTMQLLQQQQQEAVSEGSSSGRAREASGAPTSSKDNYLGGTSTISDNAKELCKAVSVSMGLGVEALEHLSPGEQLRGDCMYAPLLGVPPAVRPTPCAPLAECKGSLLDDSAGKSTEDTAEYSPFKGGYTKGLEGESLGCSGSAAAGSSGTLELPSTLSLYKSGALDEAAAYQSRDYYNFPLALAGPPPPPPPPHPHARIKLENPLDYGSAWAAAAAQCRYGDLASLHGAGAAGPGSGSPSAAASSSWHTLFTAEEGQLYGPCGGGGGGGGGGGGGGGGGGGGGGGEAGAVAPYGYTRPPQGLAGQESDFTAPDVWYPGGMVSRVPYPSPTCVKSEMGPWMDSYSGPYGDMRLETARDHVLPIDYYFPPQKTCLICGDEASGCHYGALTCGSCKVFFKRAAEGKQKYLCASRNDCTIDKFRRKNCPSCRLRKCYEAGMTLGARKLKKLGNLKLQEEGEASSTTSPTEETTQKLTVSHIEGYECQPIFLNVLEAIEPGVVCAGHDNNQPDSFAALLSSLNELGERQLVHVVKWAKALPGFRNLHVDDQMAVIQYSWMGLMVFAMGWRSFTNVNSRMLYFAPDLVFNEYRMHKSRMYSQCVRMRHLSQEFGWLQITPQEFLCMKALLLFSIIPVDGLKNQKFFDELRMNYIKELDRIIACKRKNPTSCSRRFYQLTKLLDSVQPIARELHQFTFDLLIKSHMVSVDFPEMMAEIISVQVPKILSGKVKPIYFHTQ
Assay: co-IP; in vitro binding assay: purified proteins in 20 mM Tris-HCl pH 7.5, 150 mM NaCl, 0.1% Triton X-100, 1 mM DTT, 4 °C, 5 h; FOXA1 immunoprecipitated, bound proteins by western blot; with or without ribavirin-phosphate
Settings: both partners purified

- binding result: binds
B1: Flag-FOXA1 (natural protein, UniProt P55317 1-472, looked up)
chain: MLGTVKMEGHETSDWNSYYADTQEAYSSVPVSNMNSGLGSMNSMNTYMTMNTMTTSGNMTPASFNMSYANPGLGAGLSPGAVAGMPGGSAGAMNSMTAAGVTAMGTALSPSGMGAMGAQQAASMNGLGPYAAAMNPCMSPMAYAPSNLGRSRAGGGGDAKTFKRSYPHAKPPYSYISLITMAIQQAPSKMLTLSEIYQWIMDLFPYYRQNQQRWQNSIRHSLSFNDCFVKVARSPDKPGKGSYWTLHPDSGNMFENGCYLRRQKRFKCEKQPGAGGGGGSGSGGSGAKGGPESRKDPSGASNPSADSPLHRGVHGKTGQLEGAPAPGPAASPQTLDHSGATATGGASELKTPASSTAPPISSGPGALASVPASHPAHGLAPHESQLHLKGDPHYSFNHPFSINNLMSSSEQQHKLDFKAYEQALQYSPYGSTLPASLPLGSASVTTRSPIEPSALEPAYYQGVYSRPVLNTS
notes: FOXA1, full length in Flag-tagged pcDNA3.0; source: 293T, transfected, purified (Flag M2 agarose beads, glycine elution)
